Measured values from US20080274055A1 (US Dept. of Health and Human Services, published 2008).

T1: carcinoembryonic antigen (CEA) (human, UniProt P06731 35-685)
T1 sequence (looked up): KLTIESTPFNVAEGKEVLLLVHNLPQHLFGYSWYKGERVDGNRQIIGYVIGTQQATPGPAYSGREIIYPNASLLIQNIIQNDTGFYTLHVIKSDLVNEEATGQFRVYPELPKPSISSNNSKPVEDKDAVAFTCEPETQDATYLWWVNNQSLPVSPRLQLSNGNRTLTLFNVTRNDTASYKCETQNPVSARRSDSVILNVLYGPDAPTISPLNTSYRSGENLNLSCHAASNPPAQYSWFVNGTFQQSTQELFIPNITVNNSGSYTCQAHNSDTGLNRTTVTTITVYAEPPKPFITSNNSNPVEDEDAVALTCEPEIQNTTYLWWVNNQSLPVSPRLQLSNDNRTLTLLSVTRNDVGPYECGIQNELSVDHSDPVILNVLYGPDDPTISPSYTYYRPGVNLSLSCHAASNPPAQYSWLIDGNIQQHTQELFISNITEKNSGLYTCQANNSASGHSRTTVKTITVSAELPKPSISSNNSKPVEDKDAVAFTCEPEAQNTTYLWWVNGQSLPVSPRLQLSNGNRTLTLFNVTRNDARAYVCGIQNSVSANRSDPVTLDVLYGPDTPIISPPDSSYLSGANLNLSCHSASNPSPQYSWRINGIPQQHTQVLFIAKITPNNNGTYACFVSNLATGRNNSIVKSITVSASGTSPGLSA


Tests used:
[1] = target: T1, carcinoembryonic antigen (CEA); test: competition RIA, unlabeled antibody against 125I-mCOL-1 on CEA; modified Scatchard
Protocol: (§1) Competition RIA: The relative antigen-binding affinity of HuCOL-1, HuCOL-1AbrCDR and HuCOL-1AbrCDR antibodies with framework-substitutions was determined using a competition RIA as described previously (De Pascalis et al., J Immunol., 169:3076-3084, 2002). Twenty-five μl of serial dilutions of the antibodies to be tested, as well as mCOL-1, chimeric COL-1, and HuCOL-1 (positive controls) and HuIgG (negative control), prepared in 1% BSA in PBS, were added to microtiter plates containing 10 ng of […] saturated with 5% BSA in PBS. ¹²⁵I-labeled mCOL-1 (100,000 cpm in 25 μl) was then added to each well. After an overnight incubation at 4° C., the plates were washed and the bound radioactivity was counted in a γ-scintillation counter.
(§2) Competition RIA experiments were performed to determine the relative CEA-binding affinity of chimeric COL-1, HuCOL-1, HuCOL-1AbrCDR, and the different HuCOL-1AbrCDR-derived antibodies. Serial dilutions of unlabeled antibodies were used to compete with the binding of ¹²⁵I-mCOL-1 (FIGS. 4A, 4B and 4C) to CEA.

[2] = target: T1, carcinoembryonic antigen (CEA); test: competition RIA against 125I-mCOL-1; reference of the fold not named
Protocol: as §1, §2

[3] = target: T1, carcinoembryonic antigen (CEA); test: competition RIA: unlabeled antibody against 125I-mCOL-1 for binding to CEA, % inhibition against amount competitor Ab (ng), log axis
Excerpt: FIGS. 4A, 4B, and 4C are a series of graphs of a competition radioimmunoassay of HuCOL-1AbrCDR framework variants using ¹²⁵I-mCOL-1. Serial dilutions of unlabeled antibodies were used to compete with the binding of ¹²⁵ImCOL-1. The data was divided into three individual graphs to facilitate viewing. FIG. 4A compares the binding of unlabeled murine COL-1 (muCOL-1), chimeric COL-1 (cCOL-1), HuCOL-1, FRV1 (HuCOL-1AbrCDR), and human IgG (HuIgG). FIG. 4B compares the binding of unlabeled murine HuCOL-1AbrCDR, FRV2, FRV3, FRV4, FRV7, and FRV10. FIG. 4C compares the binding of unlabeled murine HuCOL-1AbrCDR, FRV5, FRV6, FRV8, FRV9, FRV11, and FRV12.
as §1, §2

[4] = target: T1, carcinoembryonic antigen (CEA); test: competition RIA against 125I-mCOL-1 on CEA; modified Scatchard
Protocol: as §1, §2

[5] = target: anti-V region antibodies to COL-1 present in the serum of patient one; test: SPR competition; soluble antibody against immobilized HuCOL-1 for serum anti-V region antibodies
[6] = target: anti-V region antibodies to COL-1 present in the serum of patient two; test: as above

| Binder | Ka [1] [M⁻¹] | Fold Difference [2] [fold] | IC50 (read off the curve) [3] [ng] | Ka [4] [M⁻¹] | IC50 [5] [nM] | IC50 [6] [nM] |
| --- | --- | --- | --- | --- | --- | --- |
| FRV2 (antibody, name in Kabat numbering, V domains shown, also called HuCOL-1AbrCDR framework variant 2) VH: EVQLVQSGAEVVKPGASVKMSCKASGFNIKDYYMHWVKQRPEQGLEWIGWIDPENGDTEYAQKFQGKATMTTDTSTSTAYLELSSLRSEDTAVYYCNTRGLSTMITTRWFFDVWGAGTLVTVSS VL: DIVMTQSPASLAVSLGERATINCKSSQSVSASGYSYMHWYQQKPGQPPKLLIYLASNLQSGVPARFSGSGSGTDFTLTISSLQAEDVATYYCQHSRELPTFGGGTKVEIK | 2.9e+07 | 9.5 |  |  |  |  |
| FRV3 (antibody, name in Kabat numbering, V domains shown, Kabat positions (see note of FRV2); also called HuCOL-1AbrCDR framework variant 3) VH: EVQLVQSGAEVVKPGASVKMSCKASGFNIKDYYMHWVKQRPEQGLEWIGWIDPENGDTEYAQKFQGKATMTTDTSTSTAYLELSSLRSEDTAVYYCNTRGLSTMITTRWFFDVWGAGTLVTVSS VL: DIVMTQSPASLAVSLGERATINCKSSQSVSASGYSYMHWYQQKPGQPPKLLIYLASNLQSGVPDRFSGSGSGTDFTLTISSLQAEDVAVYYCQHSRELPTFGGGTKVEIK | 3.2e+07 | 8.6 |  |  |  |  |
| FRV5 (antibody, name in Kabat numbering, V domains shown, Kabat positions; also called HuCOL-1AbrCDR framework variant 5) VH: EVQLVQSGAEVVKPGASVKVSCKASGFNIKDYYMHWVRQRPEQGLEWMGWIDPENGDTEYAQKFQGRATMTTDTSTSTVYMELSSLRSEDTAVYYCNTRGLSTMITTRWFFDVWGAGTLVTVSS VL: DIVMTQSPASLAVSLGERATINCKSSQSVSASGYSYMHWYQQKPGQPPKLLIYLASNLQSGVPARFSGSGSGTDFTLTISSLQAEDVATYYCQHSRELPTFGGGTKVEIK | 1.01e+08 | 2.7 | ~30 |  |  |  |
| FRV6 (antibody, name in Kabat numbering, V domains shown, Kabat positions (see notes of FRV2 and FRV5); also called HuCOL-1AbrCDR framework variant 6) VH: EVQLVQSGAEVVKPGASVKVSCKASGFNIKDYYMHWVRQRPEQGLEWMGWIDPENGDTEYAQKFQGRATMTTDTSTSTVYMELSSLRSEDTAVYYCNTRGLSTMITTRWFFDVWGAGTLVTVSS VL: DIVMTQSPASLAVSLGERATINCKSSQSVSASGYSYMHWYQQKPGQPPKLLIYLASNLQSGVPDRFSGSGSGTDFTLTISSLQAEDVAVYYCQHSRELPTFGGGTKVEIK | 1e+08 | 2.8 |  |  |  |  |
| FRV8 (antibody, name in Kabat numbering, V domains shown, Kabat positions; also called HuCOL-1AbrCDR framework variant 8) VH: EVQLVQSGAEVVKPGASVKVSCKASGYNIKDYYMHWVRQRPEQGLEWMGWIDPENGDTEYAQKFQGRVTMTTDTSTSTVYMELSSLRSEDTAVYYCNTRGLSTMITTRWFFDVWGAGTLVTVSS VL: DIVMTQSPASLAVSLGERATINCKSSQSVSASGYSYMHWYQQKPGQPPKLLIYLASNLQSGVPARFSGSGSGTDFTLTISSLQAEDVATYYCQHSRELPTFGGGTKVEIK | 7.7e+07 | 3.6 |  |  |  |  |
| HuCOL-1 (antibody, V domains shown, Whole humanized antibody; also called humanized COL-1; ATCC PTA-4661) VH: EVQLVQSGAEVVKPGASVKMSCKASGFNIKDYYMHWVKQAPGQGLEWIGWIDPENGDTEYAPKFQGKATMTTDTSTSTAYLELSSLRSEDTAVYYCNTRGLSTMITTRWFFDVWGAGTLVTVSS VL: DIVLTQSPASLAVSLGERATINCRASKSVSASGYSYMHWYQQKPGQPPKLLIYLASNLQSGVPARFSGSGSGTDFTLTISSVQAEDVATYYCQHSRELPTFGGGTKLEIK | 2.78e+08 | 1 |  | 2.78e+08 | 4.9 | 1.9 |
| HuCOL-1AbrCDR framework variant 4 (FRV4) (antibody, V domains shown, also called HuCOL-1FRV4) VH: EVQLVQSGAEVVKPGASVKVSCKASGFNIKDYYMHWVRQRPEQGLEWMGWIDPENGDTEYAQKFQGRATMTTDTSTSTVYMELSSLRSEDTAVYYCNTRGLSTMITTRWFFDVWGAGTLVTVSS VL: DIVLTQSPASLAVSLGERATINCKSSQSVSASGYSYMHWYQQKPGQPPKLLIYLASNLQSGVPARFSGSGSGTDFTLTISSVQAEDVATYYCQHSRELPTFGGGTKLEIK | 2.51e+08 | 1.1 |  | 2.51e+08 |  |  |
| HuCOL-1AbrCDR framework variant 7 (FRV7) (antibody, V domains shown, also called HuCOL-1FRV7; FR7) VH: EVQLVQSGAEVVKPGASVKVSCKASGYNIKDYYMHWVRQRPEQGLEWMGWIDPENGDTEYAQKFQGRVTMTTDTSTSTVYMELSSLRSEDTAVYYCNTRGLSTMITTRWFFDVWGAGTLVTVSS VL: DIVLTQSPASLAVSLGERATINCKSSQSVSASGYSYMHWYQQKPGQPPKLLIYLASNLQSGVPARFSGSGSGTDFTLTISSVQAEDVATYYCQHSRELPTFGGGTKLEIK | 3.07e+08 | 0.9 |  | 3.07e+08 |  |  |
| murine COL-1 monoclonal antibody (antibody, V domains shown, Whole murine antibody; also called mCOL-1; muCOL-1) VH: EVQLQQSGAELVRSGASVKMSCTASGFNIKDYYMHWVKQRPEQGLEWIGWIDPENGDTEYAPKFQGKATMTTDTSSNTAYLQLSSLTSEDTAVYYCNTRGLSTMITTRWFFDVWGAGTTVAVSS VL: DIVLTQSPASLTVSLGLRATISCRASKSVSASGYSYMHWYQQRPGQPPKLLIYLASNLQSGVPARFSGSGSGTDFTLNIHPVEEEDAATYYCQHSRELPTFGGGTKLEIK | 2.74e+08 | 1 | ~20 |  |  |  |
| chimeric COL-1 (antibody, V domains shown) VH: EVQLQQSGAELVRSGASVKMSCTASGFNIKDYYMHWVKQRPEQGLEWIGWIDPENGDTEYAPKFQGKATMTTDTSSNTAYLQLSSLTSEDTAVYYCNTRGLSTMITTRWFFDVWGAGTTVAVSS VL: DIVLTQSPASLTVSLGLRATISCRASKSVSASGYSYMHWYQQRPGQPPKLLIYLASNLQSGVPARFSGSGSGTDFTLNIHPVEEEDAATYYCQHSRELPTFGGGTKLEIK | 1.99e+08 | 1.4 | ~30 |  |  |  |
| FRV9 (antibody, name in Kabat numbering, V domains shown, Kabat positions (see notes of FRV2 and FRV8); also called HuCOL-1AbrCDR framework variant 9) VH: EVQLVQSGAEVVKPGASVKVSCKASGYNIKDYYMHWVRQRPEQGLEWMGWIDPENGDTEYAQKFQGRVTMTTDTSTSTVYMELSSLRSEDTAVYYCNTRGLSTMITTRWFFDVWGAGTLVTVSS VL: DIVMTQSPASLAVSLGERATINCKSSQSVSASGYSYMHWYQQKPGQPPKLLIYLASNLQSGVPDRFSGSGSGTDFTLTISSLQAEDVAVYYCQHSRELPTFGGGTKVEIK | 6.1e+07 | 4.5 |  |  |  |  |
| FRV11 (antibody, name in Kabat numbering, V domains shown, Kabat positions (see notes of FRV2 and FRV8); also called HuCOL-1AbrCDR framework variant 11) VH: QVQLVQSGAEVKKPGASVKVSCKASGYNIKDYYMHWVRQRPEQGLEWMGWIDPENGDTEYAQKFQGRVTMTTDTSTSTVYMELSSLRSEDTAVYYCNTRGLSTMITTRWFFDVWGAGTLVTVSS VL: DIVMTQSPASLAVSLGERATINCKSSQSVSASGYSYMHWYQQKPGQPPKLLIYLASNLQSGVPARFSGSGSGTDFTLTISSLQAEDVATYYCQHSRELPTFGGGTKVEIK | 6.1e+07 | 4.5 |  |  |  |  |
| FRV12 (antibody, name in Kabat numbering, V domains shown, Kabat positions (see notes of FRV2 and FRV8); also called HuCOL-1AbrCDR framework variant 12) VH: QVQLVQSGAEVKKPGASVKVSCKASGYNIKDYYMHWVRQRPEQGLEWMGWIDPENGDTEYAQKFQGRVTMTTDTSTSTVYMELSSLRSEDTAVYYCNTRGLSTMITTRWFFDVWGAGTLVTVSS VL: DIVMTQSPASLAVSLGERATINCKSSQSVSASGYSYMHWYQQKPGQPPKLLIYLASNLQSGVPDRFSGSGSGTDFTLTISSLQAEDVAVYYCQHSRELPTFGGGTKVEIK | 4.9e+07 | 5.6 |  |  |  |  |
